# Laboratory results taken from patent US20260001928A1 (CORTERIA PHARMACEUTICALS, priority 2022, published 2026).
# *1 amine or outer side, *2 acyl side, *3 side chain or, on linkers, in order; H or OH if unused. Where no end group is shown, it is not given here. Side-chain parts run from the residue outwards. [ ]: non-standard residue; d: D form. The star is where a group is joined. C20 diacid = O=C(O)CCCCCCCCCCCCCCCCCCC(=O)*; C18 diacid = O=C(O)CCCCCCCCCCCCCCCCC(=O)*; γGlu = O=C(O)[C@H](CCC(=O)[*:2])N[*:1]; C14 diacid = O=C(O)CCCCCCCCCCCCC(=O)*; NMeI = CC[C@H](C)[C@H](NC)C(=O)O; Pentanoyl = CCCCC(=O)*; Aib = CC(C)(N)C(=O)O
# B1: peptide of SEQ ID NO: 145 (peptide)
# peptide: [NMeI]VLSLD[dV]PIKLK([γGlu-C18 diacid])KILLEQEKQK[Aib]QREQAETN[Aib]QILAQV-NH2
# modifications: N-terminus assumed
# SMILES: CC[C@H](C)[C@H](NC)C(=O)N[C@H](C(=O)N[C@@H](CC(C)C)C(=O)N[C@@H](CO)C(=O)N[C@@H](CC(C)C)C(=O)N[C@@H](CC(=O)O)C(=O)N[C@@H](C(=O)N1CCC[C@H]1C(=O)N[C@H](C(=O)N[C@@H](CCCCN)C(=O)N[C@@H](CC(C)C)C(=O)N[C@@H](CCCCNC(=O)CC[C@H](NC(=O)CCCCCCCCCCCCCCCCC(=O)O)C(=O)O)C(=O)N[C@@H](CCCCN)C(=O)N[C@H](C(=O)N[C@@H](CC(C)C)C(=O)N[C@@H](CC(C)C)C(=O)N[C@@H](CCC(=O)O)C(=O)N[C@@H](CCC(N)=O)C(=O)N[C@@H](CCC(=O)O)C(=O)N[C@@H](CCCCN)C(=O)N[C@@H](CCC(N)=O)C(=O)N[C@@H](CCCCN)C(=O)NC(C)(C)C(=O)N[C@@H](CCC(N)=O)C(=O)N[C@@H](CCCNC(=N)N)C(=O)N[C@@H](CCC(=O)O)C(=O)N[C@@H](CCC(N)=O)C(=O)N[C@@H](C)C(=O)N[C@@H](CCC(=O)O)C(=O)N[C@H](C(=O)N[C@@H](CC(N)=O)C(=O)NC(C)(C)C(=O)N[C@@H](CCC(N)=O)C(=O)N[C@H](C(=O)N[C@@H](CC(C)C)C(=O)N[C@@H](C)C(=O)N[C@@H](CCC(N)=O)C(=O)N[C@H](C(N)=O)C(C)C)[C@@H](C)CC)[C@@H](C)O)[C@@H](C)CC)[C@@H](C)CC)C(C)C)C(C)C
# B2: peptide of SEQ ID NO: 86 (peptide)
# peptide: Pentanoyl-VLSLD[dV]PIKLK([γGlu-C14 diacid])KILLEQEKQKKQREQAETN[Aib]QILAQV-NH2
# B3: peptide of SEQ ID NO: 87 (peptide)
# peptide: [NMeI]VLSLD[dV]PIKLK([γGlu-C14 diacid])KILLEQEKQKKQREQAETN[Aib]QILAQV-NH2
# B4: peptide of SEQ ID NO: 206 (peptide)
# peptide: Ac-IVLSLD[dV]PIKLK([γGlu-C20 diacid])KILLEQEKQKKQREQAETN[Aib]QILAQV-NH2
# SMILES: CC[C@H](C)[C@H](NC(C)=O)C(=O)N[C@H](C(=O)N[C@@H](CC(C)C)C(=O)N[C@@H](CO)C(=O)N[C@@H](CC(C)C)C(=O)N[C@@H](CC(=O)O)C(=O)N[C@@H](C(=O)N1CCC[C@H]1C(=O)N[C@H](C(=O)N[C@@H](CCCCN)C(=O)N[C@@H](CC(C)C)C(=O)N[C@@H](CCCCNC(=O)CC[C@H](NC(=O)CCCCCCCCCCCCCCCCCCC(=O)O)C(=O)O)C(=O)N[C@@H](CCCCN)C(=O)N[C@H](C(=O)N[C@@H](CC(C)C)C(=O)N[C@@H](CC(C)C)C(=O)N[C@@H](CCC(=O)O)C(=O)N[C@@H](CCC(N)=O)C(=O)N[C@@H](CCC(=O)O)C(=O)N[C@@H](CCCCN)C(=O)N[C@@H](CCC(N)=O)C(=O)N[C@@H](CCCCN)C(=O)N[C@@H](CCCCN)C(=O)N[C@@H](CCC(N)=O)C(=O)N[C@@H](CCCNC(=N)N)C(=O)N[C@@H](CCC(=O)O)C(=O)N[C@@H](CCC(N)=O)C(=O)N[C@@H](C)C(=O)N[C@@H](CCC(=O)O)C(=O)N[C@H](C(=O)N[C@@H](CC(N)=O)C(=O)NC(C)(C)C(=O)N[C@@H](CCC(N)=O)C(=O)N[C@H](C(=O)N[C@@H](CC(C)C)C(=O)N[C@@H](C)C(=O)N[C@@H](CCC(N)=O)C(=O)N[C@H](C(N)=O)C(C)C)[C@@H](C)CC)[C@@H](C)O)[C@@H](C)CC)[C@@H](C)CC)C(C)C)C(C)C
# B5: peptide of SEQ ID NO: 189 (peptide)
# peptide: Ac-IVLSLD[dV]PIKLK([γGlu-C18 diacid])KILLEQEKQKAQREQAETN[Aib]QILAQV-NH2
# SMILES: CC[C@H](C)[C@H](NC(C)=O)C(=O)N[C@H](C(=O)N[C@@H](CC(C)C)C(=O)N[C@@H](CO)C(=O)N[C@@H](CC(C)C)C(=O)N[C@@H](CC(=O)O)C(=O)N[C@@H](C(=O)N1CCC[C@H]1C(=O)N[C@H](C(=O)N[C@@H](CCCCN)C(=O)N[C@@H](CC(C)C)C(=O)N[C@@H](CCCCNC(=O)CC[C@H](NC(=O)CCCCCCCCCCCCCCCCC(=O)O)C(=O)O)C(=O)N[C@@H](CCCCN)C(=O)N[C@H](C(=O)N[C@@H](CC(C)C)C(=O)N[C@@H](CC(C)C)C(=O)N[C@@H](CCC(=O)O)C(=O)N[C@@H](CCC(N)=O)C(=O)N[C@@H](CCC(=O)O)C(=O)N[C@@H](CCCCN)C(=O)N[C@@H](CCC(N)=O)C(=O)N[C@@H](CCCCN)C(=O)N[C@@H](C)C(=O)N[C@@H](CCC(N)=O)C(=O)N[C@@H](CCCNC(=N)N)C(=O)N[C@@H](CCC(=O)O)C(=O)N[C@@H](CCC(N)=O)C(=O)N[C@@H](C)C(=O)N[C@@H](CCC(=O)O)C(=O)N[C@H](C(=O)N[C@@H](CC(N)=O)C(=O)NC(C)(C)C(=O)N[C@@H](CCC(N)=O)C(=O)N[C@H](C(=O)N[C@@H](CC(C)C)C(=O)N[C@@H](C)C(=O)N[C@@H](CCC(N)=O)C(=O)N[C@H](C(N)=O)C(C)C)[C@@H](C)CC)[C@@H](C)O)[C@@H](C)CC)[C@@H](C)CC)C(C)C)C(C)C
# B6: peptide of SEQ ID NO: 215 (peptide)
# peptide: [NMeI]VLSLD[dV]PIKLK([γGlu-C20 diacid])KILLEQEKQK[Aib]QREQAETN[Aib]QILAQV-NH2
# modifications: N-terminus assumed
# SMILES: CC[C@H](C)[C@H](NC)C(=O)N[C@H](C(=O)N[C@@H](CC(C)C)C(=O)N[C@@H](CO)C(=O)N[C@@H](CC(C)C)C(=O)N[C@@H](CC(=O)O)C(=O)N[C@@H](C(=O)N1CCC[C@H]1C(=O)N[C@H](C(=O)N[C@@H](CCCCN)C(=O)N[C@@H](CC(C)C)C(=O)N[C@@H](CCCCNC(=O)CC[C@H](NC(=O)CCCCCCCCCCCCCCCCCCC(=O)O)C(=O)O)C(=O)N[C@@H](CCCCN)C(=O)N[C@H](C(=O)N[C@@H](CC(C)C)C(=O)N[C@@H](CC(C)C)C(=O)N[C@@H](CCC(=O)O)C(=O)N[C@@H](CCC(N)=O)C(=O)N[C@@H](CCC(=O)O)C(=O)N[C@@H](CCCCN)C(=O)N[C@@H](CCC(N)=O)C(=O)N[C@@H](CCCCN)C(=O)NC(C)(C)C(=O)N[C@@H](CCC(N)=O)C(=O)N[C@@H](CCCNC(=N)N)C(=O)N[C@@H](CCC(=O)O)C(=O)N[C@@H](CCC(N)=O)C(=O)N[C@@H](C)C(=O)N[C@@H](CCC(=O)O)C(=O)N[C@H](C(=O)N[C@@H](CC(N)=O)C(=O)NC(C)(C)C(=O)N[C@@H](CCC(N)=O)C(=O)N[C@H](C(=O)N[C@@H](CC(C)C)C(=O)N[C@@H](C)C(=O)N[C@@H](CCC(N)=O)C(=O)N[C@H](C(N)=O)C(C)C)[C@@H](C)CC)[C@@H](C)O)[C@@H](C)CC)[C@@H](C)CC)C(C)C)C(C)C
# Target: Rat CRF2 a (corticotropin-releasing factor receptor 2), on the A7R5 rat aortic smooth muscle cell line (rat, UniProt P47866 20-411)
# Test: cell-based or functional assay
# Sequence of Rat CRF2 a (corticotropin-releasing factor receptor 2), on the A7R5 rat aortic smooth muscle cell line (P47866 20-411): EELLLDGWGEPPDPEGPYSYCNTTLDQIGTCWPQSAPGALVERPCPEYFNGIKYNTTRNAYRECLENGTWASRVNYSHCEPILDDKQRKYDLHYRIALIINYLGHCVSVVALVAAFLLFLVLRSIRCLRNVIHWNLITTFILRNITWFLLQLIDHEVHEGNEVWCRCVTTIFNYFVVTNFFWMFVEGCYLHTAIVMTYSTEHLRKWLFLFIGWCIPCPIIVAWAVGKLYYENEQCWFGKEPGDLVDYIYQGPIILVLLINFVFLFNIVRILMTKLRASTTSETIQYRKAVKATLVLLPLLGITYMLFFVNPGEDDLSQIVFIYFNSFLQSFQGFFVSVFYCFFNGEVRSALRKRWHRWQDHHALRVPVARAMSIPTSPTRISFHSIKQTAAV
row,Binder,"EC50 [nM] 0% HSA (cAMP, A7R5 rat aortic smooth muscle cells) [nM]"
1,B1,0.05
2,B2,0.68
3,B3,0.32
4,B4,0.06
5,B5,0.15
6,B6,0.04
